assay: yeast display, Sf9 membrane polyspecificity reagent, FACS + sequencing; frameworks hold sequencing errors
Summary of the method: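 Synthetic nanobody libraries on Saccharomyces cerevisiae BJ5465 were galactose-induced for 36–48 hours, stained 1 hour at 4 °C with 10% biotinylated, detergent-solubilized Sf9 membrane reagent and enriched on streptavidin microbeads. FACS then separated cells into low and high (top ~1%) gates by anti-HA (expression) and streptavidin (reagent binding) fluorescence. Genes were colony-PCR amplified, MiSeq 2 × 250 sequenced and CDR-length filtered. A clone's polyreactivity label is that of its gate of origin.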

| Sequence | polyreactivity (PSR sort gate) |
| --- | --- |
| QVHLVESGGGLVQAGGSLRLSCADSGSIFRYYAMGWYRQAPGKEREMFARISWSGVSTYYADSVKGRFTISRDNAKNTVYLQMNSLKTEDTADYYCAGVDFRGYRYDLDYWGQGTQVTVSS | high polyreactivity |
| QVHLVESGGGLVQAGGSLRLSCAPSGNIFFSNAMGWYRQAPGKERELVASISQSGGSTYYADSLKGRFTISRDNAKNTVYFQMNSLKPEDTAVYYCNAFSITFYDFNSWGQGTQVTVSS | low polyreactivity |
| QVHLVESGGGLVQAGGSLRLSCASSASIINVYAMGWYRQAPGKEREFVADINYSGGSTYADSVKGRFTISRDNAKNTVYLQMYSVKPEDTAVYYCADVYGYLYYELYYWGQGTQVTVSS | low polyreactivity |
| QVHLVESGGGLVQAGGSLRLSCDASGRTFFPYGMGWYRQAPGKQRELVATISWSGGSTHYADSVKGRFTISRDNAKNTVYLQMNSLKPEDNAVYYCNKTSFLVKLDYWGQVTQVTVSS | high polyreactivity |
| QVHLVESGGGLVQAGGSLRLSCDASGSIFPVNAMGWYRQAPGKERELVATITWRGGRTYYADSVKGRFTISRDNAKNTVYLQMNSLKPEDTAVYYCAARLLYRHFGYWGQGTQVTVSS | high polyreactivity |
| QVHLVESGGGLVQAGGSLRLSCGASGIIFFHYAMGWYRQAPGKERELVAAITWSGGYTYYADSVKGRFTISRDNAKNTVYLQMNSLKPEDTAVYYCNAVLHRRLYDYWGQGTQVTVSS | high polyreactivity |
| QVHLVESGGGLVQAGGSLRLSCGASGSIFFIYAMGCYRQAPGKERELVATITSGGSTYYADSLKGRFTISRDNAKNTVYLQMNSLKPEDTAVYYCAVDEYFAFDYWGLGTQVTVSS | low polyreactivity |
| QVHLVESGGGLVQAGGSLRLSCPASGRIFAIYAAMGWTRQAPGKERELVAAISSGDNTNYADSVKGRFTISRDNAKNTVYLQLNSLKPDDTAVYYCNTNYGPTHRARYYYWGQGTQVTVSS | low polyreactivity |
| QVHLVESGGGLVQAGGSLRLSCPASGRIFRVYAMGWYRQEPGKERELVAAISYSGGRTFYADSVKGRFTISRDNAKNTVYFQMNSLKPEDTAVYYGAAKSYYTQALPPFDYWGQGTQVTVSS | low polyreactivity |
| QVHLVESGGGLVQAGGSLRLSCPASGSTFYDNAMGCYRQPPGKERELVARIRWSGVRTYYADSVKGRFTISRDNAKNTVYLQMNSLKPEDTAVYYCAAGRPSRHWWSLDYYFWGQGTQVTVSS | low polyreactivity |
| QVHLVESGGGLVQAGGSLRLSCSASGRTFPYNAMGWYRQSPGKERELVAAISWRGGSTYYADSVKGRFTISRDNAKNTVYLQMNSLKPEDTAVYYCNALYPVSYDHRGDYWGQGTQVTVSS | high polyreactivity |
| QVHLVESGGGLVQAGGSLRLSCSASGSIFGKYAMGWYRQAPGKERELVAAISWSGTSTYYADSVKGRFTISRDNAKNTVYLQMNSLKPEDTAVYYCAAESRVYGYNYWGQGTQVTVSS | high polyreactivity |
| QVHLVESGGGLVQAGGSLRLSCSASGSILKYYAMGWYRQAPGKERELVAAISRSGGSTYYADSVKGRFTISRDNAKNTVYLHMNSLKPEDTAVYYCAAYYNFPYHGSDYWGQGTEVTVSS | high polyreactivity |
| QVHLVESGGGLVQAGGSLRLSSAASGFIFLQYAMGWYRQAPGKEREFVAVISRSGGGTYYADSVKGRFTISRDNAKNTVYLQMNSLKPEDTAVYYCAALGATRSRYDYWGQGTQVTVSS | high polyreactivity |
| QVHLVESGGGLVQAGGSLRLSSAASGRIFKYYTMGWYRHAPGKERELVASITGTGGSTYYADSVKGRFTISRDNAKNTVYLQMNRLKPEDTAVYYCAARLSVLGGYRGRNAWRFDHWGQGTKVTVSS | high polyreactivity |
| QVHLVESGGGLVQAGGSLRLSSAASGSIFDGNGMGWYRQAPGKERELVASISGDGSTNYADSVKGRFTISRDNAKNTVYLQMNSLKPEDTAVYYCNARSYLTRPWWWGGPYDYWGQGTKVTVSS | low polyreactivity |

| Sequence | polyreactivity (PSR sort gate) |
| --- | --- |
| QVHLVESGGGLVQAGGSLRLSSAASGSIFQVYAMGWYRQAPGTERELVAGISRGGSTYYADSVKGRFTISRDNAKNTVYLQMNSLKPEDTAVYYCAARGGGIRAYGSNRRSFYYWGQGTQVTVSS | high polyreactivity |
| QVHLVESGGGLVQAGGSLRLSSAASGSNFGLNAMGWSRQAPGKERELVAAITWSGGSSTYYADTVKGRLTISRDNAKNSVYLQMKSLKPEDTAVYYCAARRVFIPYYVRFYYWGQGTQVTVSS | high polyreactivity |
| QVHLVESGGGLVQAGGSLRLSSAASGSTFVFNAMAWYRQAPGKESELVAGISWSGGSTYYADSVKGRFTISRDNSKNTVYLQMKSLKPEDTAVYYCAVDGYFWGYYERDYSGQGTQVTVSS | low polyreactivity |
| QVHLVESGGGLVQAGGSLRLSSADTGYTFVNYARGWNRQAPGKERELVAAISDRGGSMYYADAVKGRFTISRDNAKNTVDLQMNSLKPEETAVYYCAAQHTGKYTGTRYFYWGQGTQVTVSS | high polyreactivity |
| QVHLVESGGGLVQAGGSLRLTCAASGSTFVPYAMGWYRQAPGKERELVAAISTSSGGTYYADSVKGRFTISRDNEKNTVYLQMNSLKPEDTAVYYCAAELVYVPHWLIYDYWGQGTQVTVSS | high polyreactivity |
| QVHLVESGGGLVQAGGTLRLRCAASGSTFERYVMGWYRHPLGKKGSWLPVLNHNGCSTYYAESVKGRFTISRDNAKNTVYLQMNSLKQEVTAVYYCAAYFRTVLDYGSWGQGTQVTVSS | low polyreactivity |
| QVHLVESGGGLVQAGGTLRLSCAASGLFARNAMGWYRQAPGKERELVAAINRSGGSTYYADSVKGRFTISRDNAKNTVYLQMNSLKPEDTAVYYCNKAFTHTKDRSPIAYEYGYWGQGTQVTVSS | low polyreactivity |
| QVHLVESGGGLVQAGRSLRLSCAASGSTFSYNAMGWSRQAPGKERELVAAISNGGSTNYADSVKGRFTISRDNAKYTVFLQMNSLKPEDTAVYYCAAHTYSELSWLVVYPYDYWGQGTQVTVSS | low polyreactivity |
| QVHLVESGGGLVQARVSLRLSCAASGSTFFVYTMGWYRQAPGKETEFVATIRRGGNTYADSVKGRFTISRDNAKNSVYLQMNSLKPEDTAVYFCAVVVYQGFRSKYYYWGQGTQVTVSS | high polyreactivity |
| QVHLVESGGGLVQPGGTLRLTCAASGSTFGSNARGWYRLAPGKESELVAAITRRGGSTYYADSVKGRFTISRDNAKNTVDLQMNSLKPEDTAVYYCDNVYYYLYTRYDYWGQGTEVTVSS | low polyreactivity |
| QVHLVESGGRLVQAGGSLRLICAASGRIFFTYAMGWYRQAPGKDRELVASITGSGGSTYYADSVKGSFTISRDNAKNTVYLQMNRLKPEDTAVYYCAAALFRRQLYRKFYYWGQGTQVTVSS | low polyreactivity |
| QVHLVESGGRLVQAGGSLRLSCAASGFTFSYYAMGWYRQAPGKERELVASISRSVNTYYADSVKGRFTISRDNAKNTVYLQMNSLKTEDTAVYYCAAKRISYYSYNFDYWGQGTQVTVSS | high polyreactivity |
| QVHLVESGGWLVQAGGSLRLSCAASGLTFYNYAMGWYRPAPGKEREFVAAISRSGGTTYYADSVKGRFTISRDNAKYTVYLQMISLKPEDTAVYYCNAQWWRYWPSQVIFDYWGQGSQVTVSS | high polyreactivity |
| QVHLVESGRGLFQAGGSLRLSCAASGFTFTTYVMGWYRQAPGKERELVAAITSGGSTNYADSVKGRFTISRDNAKNTVFLQMNSLKPEDTAVYFCNAVKDDGKGSYPNLHVFDYDYWGQGTQVTVSS | low polyreactivity |
| QVHLVESGRGLVQAGGSLRLSCAASGIIFYDYSMGWYRQAPGKERELVAAISWDGVSSYYADSVKGRFTISRDNAKNTVYLQMNSLKPEATAVYYCAARAVTDDDYEFDDWGQGTQVTVSS | low polyreactivity |
